Measured values reported in paper PMC7101364, “The biofilm-associated surface protein Esp of Enterococcus faecalis forms amyloid-like fibers” (NPJ Biofilms and Microbiomes, 2020).

Target: the molecule itself
Assay: visible aggregation in tubes; 2 uM rEsp_N in phosphate-citrate buffer, pH 3.6 to 8 tested; aggregates at pH 4.0-4.2 seen as a ring on the glass wall after 24 h at 37 °C, 200 rpm

B1: recombinant Esp_N domain (N-terminal domain of the enterococcal surface protein Esp, amino acids 50-743) (domain or fragment)
chain: QMGEGRLANYSASGNTFQENPGYTKNYNFSDLQFNPKAITGDVLQGNTIDFEVYGKHNIAASTANWEIRLQLDERLAQYVEKIQVDPKKGVGNSRRTFVRINDSLGRPTNIWKVNYIRANDGLFAGAETTDTQTAPNGVITFEKNLDEIFKEIGADNLKSDRLMYRIYLVSHQDDDKIVPGIESTGYFLTDQDDFYNKLDVSENNSDQFKHGSVNTKYEEANIQTKDGSGSTGANGAIILDHKLTKEKNFSYSTSAKGTPWYANYKIDERLVPYVSGIQMHMVQADKVAYNVAFESGKKVADLAIERREGHENYGMGSITDNDLTKLIDFANASPRPIVVRYVLQLTKPLDEILEEMKAADKIEENAPFGEDFIFDSWLSDTNKKLIQNTYGTGYYYLQDIDGDGNPDDKEESGDTNPYIGKPELEEVYDVDTTVKGKVFIHELAGTGHKAQLVDKEGTVLAEKTIAPNEKDGAPISDTVEFEFTGVDSSKLIAKDELKIQIVSPGFDKPEEGSTVIKESPKAVDKQTVVVGFKPDAKESIRNNKNLPEDAEYSWKTEPDTSNVTDSTKGIVTVKIGNRTFDVDVEFAVKASQAMENDATYVPITTTPETTIQSGKPTFDKPDVPLANDAFSVLDVYNKDFGNASVDANTGIVTFTPAKGVGESEPITGTIPIKIVYQDGSVGTTDLAVTVSKN
notes: Enterococcal surface protein Esp of Enterococcus faecalis, amplified from strain 11279; N-terminal domain, amino acids 50-743 of the 1873-residue protein; No cleavage of the tag is mentioned; also called N-terminus of Esp; not shown: His tag (from the vector pET46-Ek/LIC)
  binding result: binds
